Results reported in publication PMC9352346, “Arl15 upregulates the TGFβ family signaling by promoting the assembly of the Smad-complex” (eLife, 2022).

T1: His-Smad4 (UniProt Q13485 1-552)
T1 construct: Smad4; also called purified His-tagged Smad4; source: E. coli BL21, purified (nickel-nitrilotriacetic acid agarose)
T1 sequence (looked up): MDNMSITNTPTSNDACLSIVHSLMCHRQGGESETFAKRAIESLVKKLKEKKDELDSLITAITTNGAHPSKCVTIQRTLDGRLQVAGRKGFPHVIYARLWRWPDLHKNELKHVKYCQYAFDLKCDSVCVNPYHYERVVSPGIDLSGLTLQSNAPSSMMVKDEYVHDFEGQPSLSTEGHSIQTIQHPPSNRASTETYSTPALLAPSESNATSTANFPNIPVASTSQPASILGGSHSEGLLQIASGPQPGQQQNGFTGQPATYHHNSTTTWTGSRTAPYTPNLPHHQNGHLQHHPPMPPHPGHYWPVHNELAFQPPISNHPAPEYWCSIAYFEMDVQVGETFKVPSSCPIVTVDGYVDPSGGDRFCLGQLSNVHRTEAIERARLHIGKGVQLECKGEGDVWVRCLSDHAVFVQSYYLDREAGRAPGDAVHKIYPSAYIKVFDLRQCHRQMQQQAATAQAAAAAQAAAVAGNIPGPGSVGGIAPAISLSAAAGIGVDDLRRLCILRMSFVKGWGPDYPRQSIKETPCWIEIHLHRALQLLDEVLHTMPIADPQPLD


Target: T1, His-Smad4
Experiment: pull-down; bead-immobilized GST-Arl15-AL incubated with purified His-tagged Smads (His-Smad4, His-Smad2-SE, alone or together); immunoblotted against His-tag
Conditions: both partners purified

Row | binding result | Binder
1 | binds | His-Smad2-SE (natural protein, UniProt Q15796 1-467, looked up, Smad2 with phosphomimetic mutations S465E/S467E; also called His-Smad2 with S465E/S467E mutations; source: E. coli BL21, purified (nickel-nitrilotriacetic acid agarose)) MSSILPFTPPVVKRLLGWKKSAGGSGGAGGGEQNGQEEKWCEKAVKSLVKKLKKTGRLDELEKAITTQNCNTKCVTIPSTCSEIWGLSTPNTIDQWDTTGLYSFSEQTRSLDGRLQVSHRKGLPHVIYCRLWRWPDLHSHHELKAIENCEYAFNLKKDEVCVNPYHYQRVETPVLPPVLVPRHTEILTELPPLDDYTHSIPENTNFPAGIEPQSNYIPETPPPGYISEDGETSDQQLNQSMDTGSPAELSPTTLSPVNHSLDLQPVTYSEPAFWCSIAYYELNQRVGETFHASQPSLTVDGFTDPSNSERFCLGLLSNVNRNATVEMTRRHIGRGVRLYYIGGEVFAECLSDSAIFVQSPNCNQRYGWHPATVCKIPPGCNLKIFNNQEFAALLAQSVNQGFEAVYQLTRMCTIRMSFVKGWGAEYRRQTVTSTPCWIELHLNGPLQWLDKVLTQMGSPSVRCSEME
2 | binds | GST-Arl15-AL (natural protein, human, UniProt Q9NXU5 1-204, looked up, Arl15, human, A86L; also called bead-immobilized Arl15-AL; GST-Arl15-A86L; source: E. coli BL21, purified (Glutathione Sepharose 4B)) MSDLRITEAFLYMDYLCFRALCCKGPPPARPEYDLVCIGLTGSGKTSLLSKLCSESPDNVVSTTGFSIKAVPFQNAILNVKELGGLDNIRKYWSRYYQGSQGVIFVLDSASSEDDLEAARNELHSALQHPQLCTLPFLILANHQDKPAARSVQEIKKYFELEPLARGKRWILQPCSLDDMDALKDSFSQLINLLEEKDHEAVRM
